{"source": "patent US10662235B2", "about": "“Cysteine engineered fibronectin type III domain binding molecules” (Janssen Biotech, Inc., priority 2016, dated 2020)", "key": {"[1]": {"test": "Body weight loss / tolerability in H292-HGF xenograft study", "conditions": "treatment and 2 weeks observation", "description": "At the time of routine monitoring, the animals were checked for any effects of tumor growth and treatments on normal behavior, such as mobility, visual estimation of food and water consumption, body weight gain/loss (body weights were measured twice weekly), eye/hair matting and any other abnormal effect.\nAnimals for which the body weight loss exceeded 20%, or for which the mean tumor size of the group exceeds 2000 mm^3 were euthanized. The study was terminated after two weeks of observation after the final dose."}, "[2]": {"tested_on": "H292-HGF human lung cancer xenograft", "test": "Efficacy of bispecific molecule and other inhibitors in H292-HGF xenograft model (tumor volume, T/C, T-C)", "assay_type": "in vivo, SCID/Beige mice", "conditions": "for antitumor activity: H292-HGF xenograft", "description": "The H292-HGF cells were maintained in vitro in RPMI1640 medium supplemented with fetal bovine serum (10% v/v), and L-glutamine (2 mM) at 37° C. in an atmosphere of 5% CO2 in air. The cells were routinely subcultured twice weekly by trypsin-EDTA treatment. The cells growing in an exponential growth phase were harvested and counted for tumor inoculation.\nEach mouse was inoculated subcutaneously at the right flank region with H292-HGF tumor cells (2×10^6) in 0.1 ml of PBS with cultrex (1:1) for tumor development. The treatments were started when the mean tumor size reached 139 mm^3. […] The date of tumor cell inoculation was denoted as day 0.\nBefore commencement of treatment, all animals were weighed and the tumor volumes were measured. Since the tumor volume can affect the effectiveness of any given treatment, mice were assigned into groups using randomized block design based upon their tumor volumes. […] The randomized block design was used to assign experimental animals to groups. First, the experimental animals were divided into homogeneous blocks according to their initial tumor volume. Secondly, within each block, randomization of experimental animals to treatments was conducted.\nThe major endpoint was whether tumor growth can be delayed or tumor bearing mice can be cured. Tumor size was measured twice weekly in two dimensions using a caliper, and the volume was expressed in mm^3 using the formula: V=0.5a×b^2 where a and b are the long and short diameters of the tumor, respectively. The tumor size was then used for calculations of both T-C and T/C values. T-C was calculated with T as the time (in days) required for the mean tumor size of the treatment group to reach 1000 mm^3, and C was the time (in days) for the mean tumor size of the control group to reach the same size. The T/C value (in percent) was an indication of antitumor efficacy; T and C were the mean volume of the treated and control groups, respectively, on a given day. Complete tumor regression (CR) is defined as tumors that are reduced to below the limit of palpation (62.5 mm^3). Partial tumor regression (PR) is defined as tumors that are reduced from initial tumor volume. A minimum duration of CR or PR in 3 or more successive tumor measurements is required for a CP or PR to be considered durable.\nStatistical analyses of difference in tumor volume among the groups were evaluated using a one-way ANOVA followed by individual comparisons using Games-Howell (equal variance not assumed). All data were analyzed using SPSS 18.0. p<0.05 was considered to be statistically significant."}, "[3]": {"biological_target": "T1, EGFR in NCI-H292 cells (Homo sapiens, UniProt P00533)", "T1 construct": "EGF-stimulated phosphorylation of EGFR in the human tumor cell line NCI-H292; host or cells: NCI-H292", "test": "Inhibition of EGFR phosphorylation in NCI-H292 cells", "assay_type": "cell-based", "conditions": "H292 cells (FIG. 7A)", "procedure": "Purified EGFR-binding FN3 domains were tested for their ability to inhibit EGF-stimulated phosphorylation of EGFR in A431 cells at a single concentration. EGFR phosphorylation was monitored using the EGFR phospho(Tyr1173) kit (Meso Scale Discovery). Cells were plated at 20,000/well in clear 96-well tissue culture-treated plates (Nunc) in 100 μL/well of RPMI medium (Gibco) containing GlutaMAX™ with 10% fetal bovine serum (FBS) (Gibco) and allowed to attach overnight at 37° C. in a humidified 5% CO2 atmosphere. Culture medium was removed completely and cells were starved overnight in 100 μL/well of medium containing no FBS at 37° C. in a humidified 5% CO2 atmosphere. […] Signals were detected by addition of 150 μL/well of Read Buffer (Meso Scale Discovery) and reading on a SECTOR® Imager 6000 instrument (Meso Scale Discovery) using manufacturer-installed assay-specific default settings. Percent inhibition of the EGF-stimulated positive control signal was calculated for each EGFR-binding FN3 domain.\nNCI-H292, NCI-H441, or NCI-H596 cells were plated in 96 well plates in RPMI medium containing 10% FBS. […] Cells were lysed with MSD Lysis Buffer and cell signaling was assessed using appropriate MSD Assay plates, according to manufacturer's instructions, as described above. […]"}, "[4]": {"biological_target": "T2, EGFR in NCI-H596 cells (Homo sapiens, UniProt P00533)", "T2 construct": "endogenous in cells; host or cells: NCI-H596", "test": "Inhibition of EGFR phosphorylation in NCI-H596 cells", "assay_type": "cell-based", "conditions": "H596 cells (FIG. 7B)", "procedure": "NCI-H292, NCI-H441, or NCI-H596 cells were plated in 96 well plates in RPMI medium containing 10% FBS. 24 hours later, medium was replaced with serum free RPMI. […] Cells were treated for 1 h with the monospecific or bispecific molecules and then stimulated with EGF, HGF, or a combination of EGF and HGF for 15 minutes at 37° C., 5% CO2. Cells were lysed with MSD Lysis Buffer and cell signaling was assessed using appropriate MSD Assay plates, according to manufacturer's instructions, as described above."}, "[5]": {"test": "Thermal stability by differential scanning calorimetry", "assay_type": "physicochemical", "conditions": "cysteine-NEM conjugates", "procedure": "The thermal stability of cysteine-NEM conjugates was assessed by differential scanning calorimetry (DSC). The only the conjugates tested were those determined to express at high levels, conjugate efficiently, and retain EGFR binding. Additionally, cysteine variants within the BC and FG loops were excluded. Stability data was generated by heating a 400 μL aliquot of the variant from 25° C. to 100° C. at a scan rate of 1° C. per minute in a VP-DSC instrument (MicroCal). A second identical scan was completed on the sample in order to assess the reversibility of thermal folding/unfolding. Data was fitted to a 2-state unfolding model in order to calculate the melting temperature (Table 10).\nThermal Stability of c-Met-Binding FN3 Domains Differential scanning calorimetry in PBS was used to assess the stability of each FN3 domain."}, "[6]": {"test": "Analytical size exclusion chromatography (aggregation state, percent monomer)", "assay_type": "physicochemical", "conditions": "NEM-conjugated cysteine variants; SEC, Abs280", "procedure": "Size exclusion chromatography was used to determine the aggregation state of the FN3 domains binding EGFR. Aliquots (10 μL) of each purified FN3 domain were injected onto a Superdex 75 5/150 column (GE Healthcare) at a flow rate of 0.3 mL/min in a mobile phase of PBS pH 7.4. Elution from the column was monitored by absorbance at 280 nm.\nThe percent monomer for each protein was determined by integrating the Abs280 signal and comparing the peak in the monomer region (5.5-6 minutes) to the peaks in the oligomer region (4-5.3 minutes)."}, "[7]": {"biological_target": "EGFR (Homo sapiens, UniProt P00533)", "test": "EGFR binding assay (ELISA) of NEM-conjugated cysteine variants relative to parent"}, "[8]": {"tested_on": "H292-HGF tumor xenografts", "test": "Tumor efficacy study with bispecific EGFR/c-Met molecules (tumor growth inhibition)", "assay_type": "in vivo, SCID Beige mice", "conditions": "25 mg/kg three times per week (FIG. 10)", "procedure": "One week after implantation, mice were stratified into groups with equivalent tumor volumes (mean tumor volume=77.9+/−1.7 mm^3). Mice were dosed three times per week with the bispecific molecules and tumor volumes were recorded twice weekly."}, "[9]": {"tested_on": "MDA-MB-435 cells", "test": "Cytotoxicity assay of cytotoxin conjugates in EGFR-negative MDA-MB-435 cells", "assay_type": "cell-based, human", "conditions": "EGFR-negative cell line; CellTiter Glo or IncuCyte object count at 66, 72 or 90 hour", "procedure": "Cell killing was assessed by measuring viability of the EGFR-overexpressing human tumor cell line H1573 following exposure to the cysteine variant-cytotoxin conjugates. Cells were plated in black-well, clear bottomed, tissue culture-treated plates (Falcon 353219) at 7000/well in 100 μL/well of phenol red free RPMI media (Gibco 11835-030) with 5% fetal bovine serum (Gibco). Cells were allowed to attach overnight at 37° C. in a humidified 5% CO2 atmosphere. Medium was aspirated from 96-well plate and cells were treated with 50 uL of fresh media and 50 uL of 2× inhibitor made up in fresh media. Cell viability was determined by an endpoint assay with Cell TiterGlo (Promega) at 70 hours. IC50 values were determined by fitting data to the equation for a sigmoidal dose response with variable slope using GraphPad Prism 5 (GraphPad Software). Table 11 reports IC50 values obtained from analysis of the CellTiter Glo data.\nConjugates consisting of ECB147 cysteine variants, 83v2-cys, or Tencon-cys linked to a cytotoxic tubulin inhibitor from the auristatin family (FIG. 2) were tested for target-dependent cytotoxicity in cancer cells. […] Cell killing was assessed by measuring viability of the EGFR-overexpressing human tumor cell lines H1573 and A431 as well as the EGFR-negative tumor cell line MDA-MB-435 following exposure to the protein-cytotoxin conjugates using the procedure described in Example 4."}}, "note": "“Also recorded” adds a separate entry of the source.", "data": [{"molecule": "C#Cc1cccc(Nc2ncnc3cc(OCCOC)c(OCCOC)cc23)c1", "note": "[Erlotinib]", "values": [{"measurement": "toxicity / body weight loss / tolerability", "setting": "[1]", "result": "More severe body weight loss"}]}, {"molecule": "C[C@@H](Oc1cc(-c2cnn(C3CCNCC3)c2)cnc1N)c1c(Cl)ccc(F)c1Cl", "note": "[Crizotinib]", "values": [{"measurement": "antitumor activity", "setting": "[2]", "result": "no antitumor activity"}, {"measurement": "T/C value", "setting": "[2]; day 23", "result": 120, "unit": "%"}, {"measurement": "toxicity / body weight loss / tolerability", "setting": "[1]", "result": "More severe body weight loss"}]}, {"molecule": "ECB5: bispecific P53A1R5-17v2 / P114AR7P94-A3, (GGGGS)4, SEQ ID 54 (protein, bispecific EGFR/cMet binding molecule) MLPAPKNLVVSEVTEDSARLSWADPHGFYDSFLIQYQESEKVGEAIVLTVPGSERSYDLTGLKPGTEYTVSIYGVHNVYKDTNMRGLPLSAIFTTGGGGSGGGGSGGGGSGGGGSMLPAPKNLVVSRVTEDSARLSWTAPDAAFDSFWIRYFEFLGSGEAIVLTVPGSERSYDLTGLKPGTEYVVNIMGVKGGKISPPLSAIFTT", "values": [{"measurement": "inhibition of phosphorylation of EGFR, bispecific vs monospecific", "setting": "[3]", "result": "comparable"}, {"measurement": "inhibition of phosphorylation of EGFR, bispecific vs monospecific", "setting": "[4]", "result": "comparable"}]}, {"molecule": "T68C (protein, EGFR binding FN3 domain; EGFR-binding FN3 domain) chain 1: MLPAPKCLVVSEVTEDSARLSWDDPWAFYESFLIQYQESEKVGEAIVLTVPGSERSYDLTGLKPGTEYTVSIYGVHNVYKDTNMRGLPLSAIFTT chain 2: LPAPKCLVVSEVTEDSARLSWDDPWAFYESFLIQYQESEKVGEAIVLTVPGSERSYDLTGLKPGTEYTVSIYGVHNVYKDTNMRGLPLSAIFTT", "values": [{"measurement": "First Scan Tm", "setting": "[5]; DSC 25-100° C., 1° C. per minute", "result": 72, "unit": "°C"}, {"measurement": "Second Scan Tm", "setting": "[5]; second identical scan", "result": 72, "unit": "°C"}, {"measurement": "Percent monomer", "setting": "[6]", "result": 100, "unit": "%"}, {"measurement": "EGFR binding relative to P54AR4-83v2 parent, 10 nM variant in assay", "setting": "[7]; 10 nM", "result": 0.83}, {"measurement": "EGFR binding relative to P54AR4-83v2 parent, 100 nM variant in assay", "setting": "[7]; 100 nM", "result": 1.04}, {"measurement": "EGFR binding relative to P54AR4-83v2 parent, 500 nM variant in assay", "setting": "[7]; 500 nM", "result": 0.95}]}, {"molecule": "ECB38: bispecific P54AR4-83v2 / P114AR7P94-A3 linked to albumin binding domain, SEQ ID 120 (protein, Bispecific EGFR/c-Met binding molecule) MLPAPKNLVVSEVTEDSARLSWDDPWAFYESFLIQYQESEKVGEAIVLTVPGSERSYDLTGLKPGTEYTVSIYGVHNVYKDTNMRGLPLSAIFTTAPAPAPAPAPLPAPKNLVVSRVTEDSARLSWTAPDAAFDSFWIRYFEFLGSGEAIVLTVPGSERSYDLTGLKPGTEYVVNIMGVKGGKISPPLSAIFTTAPAPAPAPAPLAEAKVLANRELDKYGVSDYYKNLINNAKTVEGVKALLDEILAALP", "values": [{"measurement": "tumor growth inhibition (TGI)", "setting": "[8]", "result": "showed the most efficacy"}, {"measurement": "antitumor activity", "setting": "[2]", "result": "complete tumor regression (CR) in all mice; also recorded: complete response"}, {"measurement": "toxicity / body weight loss / tolerability", "setting": "[1]", "result": "Slight toxicity; also recorded: tolerated in 7 out of 10 mice"}]}, {"molecule": "83v2cy5-mal-PEG4-VC-MMAE (conjugate) MLPAPKNLVVSEVTEDSARLSWDDPWAFYESFLIQYQESEKVGEAIVLTVPGSERSYDLTGLKPGTEYTVSIYGVHNVYKDTNMRGLPLSAIFTTGGHHHHHHC", "values": [{"measurement": "IC50", "setting": "[9]", "result": 512, "unit": "nM"}]}, {"molecule": "83v2cy5-mal-PEG4-VK-MMAE (conjugate) MLPAPKNLVVSEVTEDSARLSWDDPWAFYESFLIQYQESEKVGEAIVLTVPGSERSYDLTGLKPGTEYTVSIYGVHNVYKDTNMRGLPLSAIFTTGGHHHHHHC", "values": [{"measurement": "IC50", "setting": "[9]", "result": 62, "unit": "nM"}]}]}
